What was measured:
Assay type in all cases: in vivo
C57BL/6J mice [1] = test: BAL cytology in APO-induced asthma model; details: 50 uL of 1 mg/ml, 1 h before allergen challenge; in comparison with control ferritin
Procedure: (§1) Wild-type C57BL/6J mice were purchased from Jackson Laboratory (Bar Harbor, Me., USA), and bred in a pathogen-free animal facility. All animals were fed with a normal diet (PMI Lab Diet) with free access to water. 6-8-week-old female mice were used for this study. Animal care and experimental procedures were performed with the approval of the Animal Care Committee of KAIST.
(§2) Asthma induction was performed by the existing method (Corry D B, Folkesson H G, Warnock M L, Erle D J, Matthay M A, et al. (1996) J Exp Med 183: 109117).
(§3) Briefly, Aspergillus oryzae protease (1 mg/mL in PBS, Sigma-Aldrich) and chicken egg ovalbumin (OVA, 0.5 mg/mL in PBS, Sigma-Aldrich) allergen (APO) were mixed 1:9 (v/v) immediately before administration. Mice received four intraperitoneal sensitizations and the intranasal challenge every 4 days (0, 4, 8, 12, 16) with 50 uL of allergen. For intranasal challenge, mice were lightly anesthetized with isoflurane inhalation (Abbott Laboratory, Abbott Park, Ill., USA). A 50 uL of AP1-retaining ferritin cage (GG-AP1L, 157cysAP1-PBNC) or AP1-not-inserted ferritin cage (wt FTL), which was diluted to 1 mg/ml in PBS, was administered 1 h before allergen challenge.
For phenotypes of allergic asthma, AHR, BAL cytology, BAL glycoprotein assay, and lung histopathology were performed by the existing method (Lee, S. H., et al. (2003) Nat. Med. 9, 128111286). […]

C57BL/6J mice [2] = test: Lung microstructure observation (PAS-stained lung slides) in APO-induced asthma model
Procedure: as §1, §3
Finally, the experimental mice were sacrificed, and lung slide specimens stained with periodic acid Schiff (PAS) were prepared. Then, changes of inflammatory cells and goblet cells were observed (arrowhead: mucin-positive goblet cell, arrow: inflammatory cell).

C57BL/6J mice [3] = test: Airway hyper-responsiveness (AHR) with FlexiVent system in APO-induced asthma model; details: 50 uL of 1 mg/ml, 1 h before allergen challenge; in comparison with control ferritin; FIG. 17a
Procedure: as §1, §2
as §3, with “challenge. […]” for “challenge.”
Briefly, 16 h after final intranasal challenge, AHR was measured with a FlexiVent system (SCIREQ Inc., Montreal, Canada). […]

C57BL/6J mice [4] = test: Secreted glycoprotein in BAL fluid (modified ELISA) in APO-induced asthma model; details: 50 uL of 1 mg/ml, 1 h before allergen challenge; FIG. 17d
Procedure: as §1
Briefly, Aspergillus oryzae protease (1 mg/mL in PBS, Sigma-Aldrich) and chicken egg ovalbumin (OVA, 0.5 mg/mL in PBS, Sigma-Aldrich) allergen (APO) were mixed 1:9 (v/v) immediately before administration. Mice received four intraperitoneal sensitizations and the intranasal challenge every 4 days (0, 4, 8, 12, 16) with 50 uL of allergen. […]
Levels of secreted glycoprotein were measured with modified ELISA by the existing method (Lee, S. H. et al., (2004) J. Allergy Clin. Immunol. 113, 72778.). […]
40 ul of each sample was transferred to an ELSA plate Greiner, Kremsmunster, Austria), and incubated at 37° C. for 2 h. […] After final washing upon the completion of the reaction, 70 ul of alkaline phosphatase substrate (5 mmol in 0.1 mol/L alkaline buffer, Sigma-Aldrich) was added, and developed until a mucin standard curve was readily apparent. After termination of the reaction with addition of 40 ul of 0.5 N sodium hydroxide, optical density was measured at 405 nm by an ELISA reader (BioRad, Hercules, Calif., USA).

B1: GG-AP1L: human ferritin light chain having AP1L (CRKRLDRNC) inserted in GG cassette; AP1-retaining ferritin cage used in asthma model (protein)
chain: MSSQIRQNYSTDVEAAVNSLVNLYLQASYTYLSLGFYFDRDDVALEGVSHFFRELAEEKREGYERLLKMQNQRGGRALFQDIKKPAEDEWGKTPDAMKAAMALEKKLNQALLDLHALGSARTDPHLCDFLETHFLDEEVKLIKKMGDHLTNLHRGSCRKRLDRNCGGPEAGLGEYLFERLTLKHD
modifications: left off: small tags and cut ends
notes: AP1-retaining ferritin cage used in asthma model
C57BL/6J mice [1]
  count of eosinophils in BAL fluid: significantly decreased
  count of inflammation cells in bronchoalveolar lavage (BAL) fluid: significantly decreased
C57BL/6J mice [2]
  counts of mucus-producing goblet cells: significantly reduced
  counts of peribronchial inflammatory cells: significantly reduced
C57BL/6J mice [3]
  airway hyper-responsiveness (AHR): significantly suppressed
C57BL/6J mice [4]
  amount of secreted glycoprotein in BAL fluid: significantly reduced
